Target: α subunit of the Sinapis alba plastid-encoded RNA polymerase (SaPEP) (Sinapis alba) (UniProt Q9XQN8)
Assay: cryo-EM structure

- stoichiometry N: 2
Substance: α subunit of the Sinapis alba plastid-encoded RNA polymerase (SaPEP) (from UniProt Q9XQN8 1-327) (natural protein)
